The supplement of paper PMC5998384

Legend:
HeLa Kyoto [1] = assay: solubility in G1/S (NP-40 vs SDS abundance) (log2 ratio); higher = more soluble; settings: cell cycle stage: G1/S
HeLa Kyoto [2] = assay: melting temperature (median over replicates), in situ; higher = more thermally stable
HeLa Kyoto [3] = assay: solubility change mitosis vs G1/S (difference of NP-40 vs SDS log2 ratios) (log2 ratio difference); higher = more soluble in mitosis
HeLa Kyoto [4] = assay: thermal stability score vs G1/S (z-score of summed log2 fold changes over temperatures); higher = more thermally stable than in G1/S
[5] = cell cycle stage: early G1 (4.5 h after nocodazole release)
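For melting temperature (median over replicates), in situ in this document: HeLa Kyoto cells synchronized by double thymidine or nocodazole block, proteins quantified by TMT10plex mass spectrometry, three independent biological replicates.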
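For solubility change mitosis vs G1/S (difference of NP-40 vs SDS log2 ratios) in this document: synchronized HeLa Kyoto cells (double thymidine block for G1/S, nocodazole release for mitosis), protein amounts in NP-40 versus SDS lysates quantified by mass spectrometry, three biological replicates.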
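For solubility in G1/S (NP-40 vs SDS abundance) in this document: HeLa Kyoto cells arrested at G1/S by double thymidine block, proteins quantified by TMT10plex mass spectrometry in mild NP-40 versus SDS extracts, three biological replicates.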
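For thermal stability score vs G1/S (z-score of summed log2 fold changes over temperatures) in this document: synchronized HeLa Kyoto cells, proteins quantified by TMT10plex mass spectrometry, three biological replicates, mitosis taken 0.5 h after nocodazole release, G1/S directly after double thymidine block.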

For “MGLQPLEFSDCYLDSPWFRERIRAHEAELERTNKFIKELIKDGKNLIAATKSLSVAQRKFAHSLRDFKFEFIGDAVTDDERCIDASLREFSNFLKNLEEQREIMALSVTETLIKPLEKFRKEQLGAVKEEKKKFDKETEKNYSLIDKHLNLSAKKKDSHLQEADIQVEQNRQHFYELSLEYVCKLQEIQERKKFEFVEPMLSFFQGMFTFYHQGHELAKDFNHYKMELQINIQNTRNRFEGTRSEVEELMNKIRQNPKDHKRASQFTAEGYLYVQEKRPAPFGSSWVKHYCMYRKAAKKFNMIPFEHRSGGKLGDGEVFFLKECTKRHTDSIDRRFCFDIEAADRPGVSLTMQAFSEEERKQWLEALGGKEALSHSFNTAIIPRPEGNAQLDKMGFTIIRKCISAVETRGINDQGLYRVVGVSSKVQRLLSMLMDVKTCNEVDLENSADWEVKTITSALKQYLRSLPEPLMTYELHGDFIVPAKSGSPESRVNAIHFLVHKLPEKNKEMLDILVKHLTNVSNHSKQNLMTVANLGVVFGPTLMRPQEETVAALMDLKFQNIVVEILIENHEKIFRTPPDTTFPEPTCLSASPPNAPPRQSKRQGQRTKRPVAVYNLCLELEDGDNPYPSKEDTPTSSLDSLSSPSPVTTAVPGPPGPDKNHLLADGGSFGDWASTIPGQTRSSMVQWLNPQSPTTTSSNSAVTPLSPGSSPFPFSPPATVADKPPESIRSRKARAVYPCEAEHSSELSFEIGAIFEDVQTSREPGWLEGTLNGKRGLIPQNYVKLL [ARHGAP10]”, the “solubility in G1/S (log2)” value (HeLa Kyoto [1]) was -0.255, the melting temperature (HeLa Kyoto [2]; cell cycle stage: G1/S) was 51.7 °C and the “solubility change mitosis (log2)” value (HeLa Kyoto [3]) was 0.08. For the same sequence, the thermal stability score (HeLa Kyoto [4]; [5]) was -0.188 and the thermal stability score (HeLa Kyoto [4]; cell cycle stage: mitosis) was -0.186.

With “MGLSPSAPAVAVQASNASASPPSGCPMHEGKMKGCPVNTEPSGPTCEKKTYSVPAHQERAYEYVECPIRGTAAENKENLDPSNLMPPPNQTPAPDQPFALSTVREESSIPRADSEKKWVYPSEQMFWNAMLKKGWKWKDEDISQKDMYNIIRIHNQNNEQAWKEILKWEALHAAECPCGPSLIRFGGKAKEYSPRARIRSWMGYELPFDRHDWIINRCGTEVRYVIDYYDGGEVNKDYQFTILDVRPALDSLSAVWDRMKVAWWRWTS [HCCS]” the “solubility in G1/S (log2)” value (HeLa Kyoto [1]) was 0.328, the melting temperature (HeLa Kyoto [2]; cell cycle stage: G1/S) was 55.3 °C and the melting temperature (HeLa Kyoto [2]; cell cycle stage: mitosis) was 55.1 °C. The “solubility change mitosis (log2)” value (HeLa Kyoto [3]) was -0.0745, the thermal stability score (HeLa Kyoto [4]; [5]) was -0.00681 and the thermal stability score (HeLa Kyoto [4]; cell cycle stage: mitosis) was -0.977.

With “MGLYAAAAGVLAGVESRQGSIKGLVYSSNFQNVKQLYALVCETQRYSAVLDAVIASAGLLRAEKKLRPHLAKVLVYELLLGKGFRGGGGRWKALLGRHQARLKAELARLKVHRGVSRNEDLLEVGSRPGPASQLPRFVRVNTLKTCSDDVVDYFKRQGFSYQGRASSLDDLRALKGKHFLLDPLMPELLVFPAQTDLHEHPLYRAGHLILQDRASCLPAMLLDPPPGSHVIDACAAPGNKTSHLAALLKNQGKIFAFDLDAKRLASMATLLARAGVSCCELAEEDFLAVSPSDPRYHEVHYILLDPSCSGSGMPSRQLEEPGAGTPSPVRLHALAGFQQRALCHALTFPSLQRLVYSTCSLCQEENEDVVRDALQQNPGAFRLAPALPAWPHRGLSTFPGAEHCLRASPETTLSSGFFVAVIERVEVPR [NSUN5]” the “solubility in G1/S (log2)” value (HeLa Kyoto [1]) was -0.194, the melting temperature (HeLa Kyoto [2]; cell cycle stage: G1/S) was 48.7 °C and the melting temperature (HeLa Kyoto [2]; cell cycle stage: mitosis) was 50.2 °C. For the same sequence, the “solubility change mitosis (log2)” value (HeLa Kyoto [3]) was 0.282, the thermal stability score (HeLa Kyoto [4]; [5]) was 0.348 and the thermal stability score (HeLa Kyoto [4]; cell cycle stage: mitosis) was -0.0976.

For “MGNCHTVGPNEALVVSGGCCGSDYKQYVFGGWAWAWWCISDTQRISLEIMTLQPRCEDVETAEGVALTVTGVAQVKIMTEKELLAVACEQFLGKNVQDIKNVVLQTLEGHLRSILGTLTVEQIYQDRDQFAKLVREVAAPDVGRMGIEILSFTIKDVYDKVDYLSSLGKTQTAVVQRDADIGVAEAERDAGIREAECKKEMLDVKFMADTKIADSKRAFELQKSAFSEEVNIKTAEAQLAYELQGAREQQKIRQEEIEIEVVQRKKQIAVEAQEILRTDKELIATVRRPAEAEAHRIQQIAEGEKVKQVLLAQAEAEKIRKIGEAEAAVIEAMGKAEAERMKLKAEAYQKYGDAAKMALVLEALPQIAAKIAAPLTKVDEIVVLSGDNSKVTSEVNRLLAELPASVHALTGVDLSKIPLIKKATGVQV [FLOT2]”, the “solubility in G1/S (log2)” value (HeLa Kyoto [1]) was -1.04, the melting temperature (HeLa Kyoto [2]; cell cycle stage: G1/S) was 56.8 °C and the melting temperature (HeLa Kyoto [2]; cell cycle stage: mitosis) was 55.8 °C. The “solubility change mitosis (log2)” value (HeLa Kyoto [3]) was 0.153, the thermal stability score (HeLa Kyoto [4]; [5]) was -2.8 and the thermal stability score (HeLa Kyoto [4]; cell cycle stage: mitosis) was -0.0606.
